Results published in the supplement of paper PMC9112550, “Optimization of the antimicrobial peptide Bac7 by deep mutational scanning” (BMC Biology, 2022).

tested on: Escherichia coli TOP10; test: shrunken log2 fold change of peptide-encoding DNA abundance (4.5 h post-induction vs induction); higher = less antimicrobial activity (less host growth inhibition); details: time post-induction: 4.5 h; library: site-saturation at positions 5, 18, 19, 20
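Also: peptides expressed intracellularly from a pBAD plasmid library in pooled LB shake-flask culture, induced with 0.3% L-arabinose, DNA abundance read by NGS, three biological replicates, DESeq2 with apeglm shrinkage.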

Sequence | shrunken log2 fold change
RRIRSRPPRLPRPRPRPSYDPRP | -0.609
RRIRSRPPRLPRPRPRPSYSPRP | 0.232
RRIRSRPPRLPRPRPRPSYTPRP | -0.437
RRIRSRPPRLPRPRPRPSYVPRP | -0.735
RRIRSRPPRLPRPRPRPTASPRP | 0.116
RRIRSRPPRLPRPRPRPTFYPRP | -0.231
RRIRSRPPRLPRPRPRPTKHPRP | -0.151
RRIRSRPPRLPRPRPRPTKSPRP | 0.0789
RRIRSRPPRLPRPRPRPTLLPRP | 0.227
RRIRSRPPRLPRPRPRPTMMPRP | -0.253
RRIRSRPPRLPRPRPRPTNFPRP | 0.0979
RRIRSRPPRLPRPRPRPTRAPRP | 0.738
RRIRSRPPRLPRPRPRPTRGPRP | 0.581
RRIRSRPPRLPRPRPRPTRHPRP | 0.227
RRIRSRPPRLPRPRPRPTRLPRP | 0.699
RRIRSRPPRLPRPRPRPTRMPRP | 1.03
RRIRSRPPRLPRPRPRPTTFPRP | -0.272
RRIRSRPPRLPRPRPRPTWRPRP | 0.424
RRIRSRPPRLPRPRPRPVADPRP | 0.0874
RRIRSRPPRLPRPRPRPVAQPRP | 0.101
RRIRSRPPRLPRPRPRPVDEPRP | -0.216
RRIRSRPPRLPRPRPRPVFEPRP | -0.0222

Sequence | shrunken log2 fold change
RRIRSRPPRLPRPRPRPVGAPRP | 0.538
RRIRSRPPRLPRPRPRPVGEPRP | 0.332
RRIRSRPPRLPRPRPRPVIAPRP | 0.053
RRIRSRPPRLPRPRPRPVIFPRP | -0.335
RRIRSRPPRLPRPRPRPVKWPRP | -0.03
RRIRSRPPRLPRPRPRPVNWPRP | 0.142
RRIRSRPPRLPRPRPRPVPIPRP | 0.129
RRIRSRPPRLPRPRPRPVPPPRP | 0.329
RRIRSRPPRLPRPRPRPVQIPRP | 0.111
RRIRSRPPRLPRPRPRPVQWPRP | 0.175
RRIRSRPPRLPRPRPRPVRPPRP | 0.742
RRIRSRPPRLPRPRPRPVSIPRP | -0.319
RRIRSRPPRLPRPRPRPVSLPRP | -0.122
RRIRSRPPRLPRPRPRPVVWPRP | 0.462
RRIRSRPPRLPRPRPRPVYSPRP | -0.0582
RRIRSRPPRLPRPRPRPWAFPRP | -0.072
RRIRSRPPRLPRPRPRPWAPPRP | 0.0324
RRIRSRPPRLPRPRPRPWASPRP | -0.114
RRIRSRPPRLPRPRPRPWAYPRP | -0.107
RRIRSRPPRLPRPRPRPWCCPRP | -0.544
RRIRSRPPRLPRPRPRPWCFPRP | -0.715
RRIRSRPPRLPRPRPRPWCIPRP | -0.0292

Sequence | shrunken log2 fold change
RRIRSRPPRLPRPRPRPWCQPRP | -0.119
RRIRSRPPRLPRPRPRPWDDPRP | -0.0242
RRIRSRPPRLPRPRPRPWDHPRP | -0.143
RRIRSRPPRLPRPRPRPWFIPRP | -0.311
RRIRSRPPRLPRPRPRPWGDPRP | -0.077
RRIRSRPPRLPRPRPRPWGIPRP | -0.118
RRIRSRPPRLPRPRPRPWGMPRP | -0.0848
RRIRSRPPRLPRPRPRPWHKPRP | -0.195
RRIRSRPPRLPRPRPRPWHTPRP | -0.348
RRIRSRPPRLPRPRPRPWKAPRP | -0.00809
RRIRSRPPRLPRPRPRPWKEPRP | -0.0075
RRIRSRPPRLPRPRPRPWKYPRP | 0.0245
RRIRSRPPRLPRPRPRPWLDPRP | -0.0811
RRIRSRPPRLPRPRPRPWLHPRP | -0.254
RRIRSRPPRLPRPRPRPWLTPRP | -0.0675
RRIRSRPPRLPRPRPRPWMDPRP | -0.0373
RRIRSRPPRLPRPRPRPWMMPRP | -0.165
RRIRSRPPRLPRPRPRPWMVPRP | -0.267
RRIRSRPPRLPRPRPRPWQHPRP | 0.14
RRIRSRPPRLPRPRPRPWSLPRP | -0.0411
RRIRSRPPRLPRPRPRPWSVPRP | -0.305
RRIRSRPPRLPRPRPRPWWEPRP | -0.0921

Sequence | shrunken log2 fold change
RRIRSRPPRLPRPRPRPWYEPRP | -0.0183
RRIRSRPPRLPRPRPRPWYNPRP | -0.502
RRIRSRPPRLPRPRPRPYCMPRP | -0.881
RRIRSRPPRLPRPRPRPYDPPRP | -1
RRIRSRPPRLPRPRPRPYELPRP | 0.093
RRIRSRPPRLPRPRPRPYFTPRP | 1.09
RRIRSRPPRLPRPRPRPYFWPRP | -0.538
RRIRSRPPRLPRPRPRPYGQPRP | -0.134
RRIRSRPPRLPRPRPRPYHRPRP | -0.507
RRIRSRPPRLPRPRPRPYKEPRP | -0.0146
RRIRSRPPRLPRPRPRPYKHPRP | -0.734
RRIRSRPPRLPRPRPRPYKIPRP | -0.846
RRIRSRPPRLPRPRPRPYKYPRP | -0.637
RRIRSRPPRLPRPRPRPYLRPRP | -0.00709
RRIRSRPPRLPRPRPRPYLSPRP | -0.062
RRIRSRPPRLPRPRPRPYMKPRP | -0.421
RRIRSRPPRLPRPRPRPYMQPRP | -0.145
RRIRSRPPRLPRPRPRPYPDPRP | -0.172
RRIRSRPPRLPRPRPRPYRNPRP | -0.254
RRIRSRPPRLPRPRPRPYRRPRP | -0.0841
RRIRSRPPRLPRPRPRPYRYPRP | -0.262
RRIRSRPPRLPRPRPRPYSDPRP | -0.0368

Sequence | shrunken log2 fold change
RRIRSRPPRLPRPRPRPYTAPRP | -0.752
RRIRSRPPRLPRPRPRPYVPPRP | -0.784
RRIRSRPPRLPRPRPRPYWHPRP | -0.783
RRIRSRPPRLPRPRPRPYWMPRP | -0.648
RRIRTRPPRLPRPRPRPAADPRP | 0.453
RRIRTRPPRLPRPRPRPAALPRP | 0.0806
RRIRTRPPRLPRPRPRPAAWPRP | 0.754
RRIRTRPPRLPRPRPRPACTPRP | 0.212
RRIRTRPPRLPRPRPRPAEMPRP | -0.253
RRIRTRPPRLPRPRPRPAERPRP | -0.104
RRIRTRPPRLPRPRPRPAFQPRP | 0.125
RRIRTRPPRLPRPRPRPAFTPRP | 0.0137
RRIRTRPPRLPRPRPRPAGFPRP | -0.0588
RRIRTRPPRLPRPRPRPAGKPRP | 0.196
RRIRTRPPRLPRPRPRPAGWPRP | 0.517
RRIRTRPPRLPRPRPRPAHAPRP | 0.0759
RRIRTRPPRLPRPRPRPAHLPRP | -0.000138
RRIRTRPPRLPRPRPRPAIIPRP | -0.233
RRIRTRPPRLPRPRPRPAIRPRP | 0.00208
RRIRTRPPRLPRPRPRPAKHPRP | 0.0349
RRIRTRPPRLPRPRPRPAKSPRP | -0.055
